Molecular target: human TREM2 on cells (human) (UniProt Q9NZC2)
Assay: cell-based or functional assay

Sequence of human TREM2 on cells (human) (Q9NZC2 19-230): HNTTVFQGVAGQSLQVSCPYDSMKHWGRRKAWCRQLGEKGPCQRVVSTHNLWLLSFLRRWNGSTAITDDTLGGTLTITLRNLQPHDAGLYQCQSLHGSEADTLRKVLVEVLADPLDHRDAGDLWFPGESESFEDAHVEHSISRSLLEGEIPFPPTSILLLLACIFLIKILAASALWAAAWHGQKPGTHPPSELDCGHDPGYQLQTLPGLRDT

Emax (% maximum activation compared to RnD antibody): 100%
pSyk EC50, HEK293T human TREM2/DAP12: 0.5 nM
pSyk EC50, differentiated THP-1 cells: 0.383 nM
pSyk Emax, HEK293T human TREM2/DAP12: 13.8
Substance: rat anti-human/mouse TREM2 antibody mAb17291 (Rat IgG2b Clone #237920, R&D Systems)

From patent US20220204611A1
